{"source": "IntAct's records for PubMed 20059542", "parents": {"B1": {"name": "26S proteasome non-ATPase regulatory subunit 4 (Homo sapiens), P55036 (parent)", "chain": "MVLESTMVCVDNSEYMRNGDFLPTRLQAQQDAVNIVCHSKTRSNPENNVGLITLANDCEVLTTLTPDTGRILSKLHTVQPKGKITFCTGIRVAHLALKHRQGKNHKMRIIAFVGSPVEDNEKDLVKLAKRLKKEKVNVDIINFGEEEVNTEKLTAFVNTLNGKDGTGSHLVTVPPGPSLADALISSPILAGEGGAMLGLGASDFEFGVDPSADPELALALRVSMEEQRQRQEEEARRAAAASAAEAGIATTGTEDSDDALLKMTISQQEFGRTGLPDLSSMTEEEQIAYAMQMSLQGAEFGQAESADIDASSAMDTSEPAKEEDDYDVMQDPEFLQSVLENLPGVDPNNEAIRNAMGSLASQATKDGKKDKKEEDKK"}, "B2": {"name": "Ubiquitin domain-containing protein DSK2 (Saccharomyces cerevisiae), P48510 (parent)", "chain": "MSLNIHIKSGQDKWEVNVAPESTVLQFKEAINKANGIPVANQRLIYSGKILKDDQTVESYHIQDGHSVHLVKSQPKPQTASAAGANNATATGAAAGTGATPNMSSGQSAGFNPLADLTSARYAGYLNMPSADMFGPDGGALNNDSNNQDELLRMMENPIFQSQMNEMLSNPQMLDFMIQSNPQLQAMGPQARQMLQSPMFRQMLTNPDMIRQSMQFARMMDPNAGMGSAGGAASAFPAPGGDAPEEGSNTNTTSSSNTGNNAGTNAGTNAGANTAANPFASLLNPALNPFANAGNAASTGMPAFDPALLASMFQPPVQASQAEDTRPPEERYEHQLRQLNDMGFFDFDRNVAALRRSGGSVQGALDSLLNGDV", "partner": "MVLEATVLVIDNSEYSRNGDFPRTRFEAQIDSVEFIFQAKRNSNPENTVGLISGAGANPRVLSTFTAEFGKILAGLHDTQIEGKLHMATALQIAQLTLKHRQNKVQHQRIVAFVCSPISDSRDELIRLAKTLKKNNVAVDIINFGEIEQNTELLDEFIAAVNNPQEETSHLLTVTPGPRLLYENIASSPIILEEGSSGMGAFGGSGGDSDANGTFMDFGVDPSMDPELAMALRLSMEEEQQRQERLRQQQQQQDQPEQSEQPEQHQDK"}}, "data": [{"variants_of": "B1", "details": "with ubql1_human UBQLN1, Q9UMX0", "values": [{"variant": "MVLESTMVCVDNSEYMRNGDFLPTRLQAQQDAVNIVCHSKTRSNPENNVGLITLANDCEVLTTLTPDTGRILSKLHTVQPKGKITFCTGIRVAHLALKHRQGKNHKMRIIAFVGSPVEDNEKDLVKLAKRLKKEKVNVDIINFGEEEVNTEKLTAFVNTLNGKDGTGSHLVTVPPGPSLADALISSPILAGEGGAMLGLGASDFEFGVDPSADPELALALRVSMEEQRQRQEEEARRAAAASAAEAGIATTGTEDSDDALLKMTISQQEFGRTGLPDLSSMTEEEQNNNNNQMSLQGAEFGQAESADIDASSAMDTSEPAKEEDDYDVMQDPEFLQSVLENLPGVDPNNEAIRNAMGSLASQATKDGKKDKKEEDKK", "note": "[I287N;A288N;Y289N;A290N;M291N]", "effect of a mutation on the interaction": "disrupting interaction strength"}]}, {"variants_of": "B1", "details": "with ubql2_human UBQLN2, Q9UHD9", "values": [{"variant": "MVLESTMVCVDNSEYMRNGDFLPTRLQAQQDAVNIVCHSKTRSNPENNVGLITLANDCEVLTTLTPDTGRILSKLHTVQPKGKITFCTGIRVAHLALKHRQGKNHKMRIIAFVGSPVEDNEKDLVKLAKRLKKEKVNVDIINFGEEEVNTEKLTAFVNTLNGKDGTGSHLVTVPPGPSLADALISSPILAGEGGAMLGLGASDFEFGVDPSADPELALALRVSMEEQRQRQEEEARRAAAASAAEAGIATTGTEDSDDALLKMTISQQEFGRTGLPDLSSMTEEEQNNNNNQMSLQGAEFGQAESADIDASSAMDTSEPAKEEDDYDVMQDPEFLQSVLENLPGVDPNNEAIRNAMGSLASQATKDGKKDKKEEDKK", "note": "[I287N;A288N;Y289N;A290N;M291N]", "effect of a mutation on the interaction": "disrupting interaction strength"}]}, {"variants_of": "B1", "details": "with dsk2_yeast DSK2, P48510", "values": [{"variant": "MVLESTMVCVDNSEYMRNGDFLPTRLQAQQDAVNIVCHSKTRSNPENNVGLITLANDCEVLTTLTPDTGRILSKLHTVQPKGKITFCTGIRVAHLALKHRQGKNHKMRIIAFVGSPVEDNEKDLVKLAKRLKKEKVNVDIINFGEEEVNTEKLTAFVNTLNGKDGTGSHLVTVPPGPSLADALISSPILAGEGGAMLGLGASDFEFGVDPSADPELALALRVSMEEQRQRQEEEARRAAAASAAEAGIATTGTEDSDDALLKMTISQQEFGRTGLPDLSSMTEEEQNNNNNQMSLQGAEFGQAESADIDASSAMDTSEPAKEEDDYDVMQDPEFLQSVLENLPGVDPNNEAIRNAMGSLASQATKDGKKDKKEEDKK", "note": "[I287N;A288N;Y289N;A290N;M291N]", "effect of a mutation on the interaction": "with no effect"}]}, {"variants_of": "B1", "details": "with rd23b_human RAD23B", "values": [{"variant": "MVLESTMVCVDNSEYMRNGDFLPTRLQAQQDAVNIVCHSKTRSNPENNVGLITLANDCEVLTTLTPDTGRILSKLHTVQPKGKITFCTGIRVAHLALKHRQGKNHKMRIIAFVGSPVEDNEKDLVKLAKRLKKEKVNVDIINFGEEEVNTEKLTAFVNTLNGKDGTGSHLVTVPPGPSLADALISSPILAGEGGAMLGLGASDFEFGVDPSADPELALALRVSMEEQRQRQEEEARRAAAASAAEAGIATTGTEDSDDALLKMTISQQEFGRTGLPDLSSMTEEEQNNNNNQMSLQGAEFGQAESADIDASSAMDTSEPAKEEDDYDVMQDPEFLQSVLENLPGVDPNNEAIRNAMGSLASQATKDGKKDKKEEDKK", "note": "[I287N;A288N;Y289N;A290N;M291N]", "effect of a mutation on the interaction": "disrupting interaction strength"}]}, {"variants_of": "B2", "details": "with rpn10_yeast RPN10, P38886", "values": [{"variant": "MSLNIHIKSGQDKWEVNVAPESTVLQFKEAINKANGIPVANQRAIYSGKILKDDQTVESYHIQDGHSVHLVKSQPKPQTASAAGANNATATGAAAGTGATPNMSSGQSAGFNPLADLTSARYAGYLNMPSADMFGPDGGALNNDSNNQDELLRMMENPIFQSQMNEMLSNPQMLDFMIQSNPQLQAMGPQARQMLQSPMFRQMLTNPDMIRQSMQFARMMDPNAGMGSAGGAASAFPAPGGDAPEEGSNTNTTSSSNTGNNAGTNAGTNAGANTAANPFASLLNPALNPFANAGNAASTGMPAFDPALLASMFQPPVQASQAEDTRPPEERYEHQLRQLNDMGFFDFDRNVAALRRSGGSVQGALDSLLNGDV", "note": "[L44A]", "effect of a mutation on the interaction": "with no effect"}, {"variant": "MSLNIHIKSGQDKWEVNVAPESTVLQFKEAINKANGIPVANQRAAYSGKILKDDQTVESYHIQDGHSVHLVKSQPKPQTASAAGANNATATGAAAGTGATPNMSSGQSAGFNPLADLTSARYAGYLNMPSADMFGPDGGALNNDSNNQDELLRMMENPIFQSQMNEMLSNPQMLDFMIQSNPQLQAMGPQARQMLQSPMFRQMLTNPDMIRQSMQFARMMDPNAGMGSAGGAASAFPAPGGDAPEEGSNTNTTSSSNTGNNAGTNAGTNAGANTAANPFASLLNPALNPFANAGNAASTGMPAFDPALLASMFQPPVQASQAEDTRPPEERYEHQLRQLNDMGFFDFDRNVAALRRSGGSVQGALDSLLNGDV", "note": "[L44A;I45A]", "effect of a mutation on the interaction": "disrupting interaction strength"}, {"variant": "I45A", "effect of a mutation on the interaction": "with no effect"}, {"variant": "MSLNIHIKSGQDKWEVNVAPESTVLQFKEAINKANGIPVANQRLIYSGKILKDDQTVESYHIQDGHSVHAVKSQPKPQTASAAGANNATATGAAAGTGATPNMSSGQSAGFNPLADLTSARYAGYLNMPSADMFGPDGGALNNDSNNQDELLRMMENPIFQSQMNEMLSNPQMLDFMIQSNPQLQAMGPQARQMLQSPMFRQMLTNPDMIRQSMQFARMMDPNAGMGSAGGAASAFPAPGGDAPEEGSNTNTTSSSNTGNNAGTNAGTNAGANTAANPFASLLNPALNPFANAGNAASTGMPAFDPALLASMFQPPVQASQAEDTRPPEERYEHQLRQLNDMGFFDFDRNVAALRRSGGSVQGALDSLLNGDV", "note": "[L70A]", "effect of a mutation on the interaction": "with no effect"}]}, {"variants_of": "B2", "details": "with rpn10_yeast RPN10, P38886", "remark": "another data set of the same source", "values": [{"variant": "MSLNIHIKSGQDKWEVNVAPESTVLQFKEAINKANGIPVANQRLIYSGKILKDDQTVESYHIQDGHSVHAVKSQPKPQTASAAGANNATATGAAAGTGATPNMSSGQSAGFNPLADLTSARYAGYLNMPSADMFGPDGGALNNDSNNQDELLRMMENPIFQSQMNEMLSNPQMLDFMIQSNPQLQAMGPQARQMLQSPMFRQMLTNPDMIRQSMQFARMMDPNAGMGSAGGAASAFPAPGGDAPEEGSNTNTTSSSNTGNNAGTNAGTNAGANTAANPFASLLNPALNPFANAGNAASTGMPAFDPALLASMFQPPVQASQAEDTRPPEERYEHQLRQLNDMGFFDFDRNVAALRRSGGSVQGALDSLLNGDV", "note": "[L70A]", "effect of a mutation on the interaction": "disrupting interaction"}]}]}
